Test results: patent US20140363428A1 (Chugai, published 2014)
Numbering of substitutions follows the chain as printed. Names may count otherwise. One block for each binder: values may come before it.

How the values were obtained:
[1] = biological target: T1, human IgA (human); experiment: SPR Biacore T200, 37 C; pH 5.8, 1.2 mM Ca; steady state affinity
T1 construct: Recombinant antigen; variable region derived from an anti-human IL-6 receptor antibody; also called hIgA
Method: (§1) The antibodies isolated as described in 8-2 were assessed for their hIgA-binding activity (dissociation constant KD (M)) using Biacore T200 (GE Healthcare). Running buffers used in the measurement were 0.05% tween20/20 mmol/L ACES/150 mmol/L NaCl (pH 7.4 or 5.8) containing 3 microM or 1.2 mM CaCl₂.
(§2) The antibody was allowed to bind to Sensor chip CM5 (GE Healthcare) immobilized with a suitable amount of recombinant Protein A/G (Thermo Scientific) by the amino coupling method. Then, an appropriate concentration of hIgA (described in 8-1) was injected as an analyte to allow interaction with the antibody on the sensor chip. The measurement was carried out at 37 degrees C. After the measurement, 10 mmol/L glycine-HCl (pH 1.5) was injected to regenerate the sensor chip. The dissociation constant KD (M) was calculated from the measurement result by curve fitting analysis and equilibrium parameter analysis using Biacore T200 Evaluation Software (GE Healthcare).

[2] = biological target: T1, human IgA; experiment: SPR Biacore T200, 37 C; pH 5.8, 3 microM Ca; steady state affinity
Method: as §1, §2

[3] = biological target: T1, human IgA; experiment: SPR Biacore T200, 37 C; pH 7.4, 3 microM Ca; steady state affinity
Method: as §1, §2

[4] = biological target: T1, human IgA; experiment: SPR Biacore T200, 37 C, Ab on Protein A/G, hIgA analyte; pH 7.4, 1.2 mM Ca; 1:1 binding model
Method: as §1, §2

[5] = biological target: T1, human IgA; experiment: SPR Biacore T200, 37 C, Ab on Protein A/G, hIgA analyte; pH 7.4, 1.2 mM Ca; 1:1 binding model; pH 7.4, 1.2 mM Ca; 1:1 binding model
Method: as §1, §2

[6] = biological target: T2, soluble human FcRn (heterodimer of FcRn alpha chain and beta2-microglobulin) (human, UniProt P55899 24-297; P61769 21-119); experiment: SPR (Biacore), hFcRn, measured in multiplicates; n=7
T2 construct: Signal regions are part of the expressed constructs; also called hFcRn

[7] = biological target: T2, soluble human FcRn (heterodimer of FcRn …); experiment: SPR, hFcRn at pH 7.0
[8] = biological target: T3, soluble human FcRn (human, UniProt P55899 24-297; P61769 21-119); experiment: SPR (Biacore), pH 6.0; pH 6.0 (acidic pH, not neutral pH)
T3 construct: Heterodimer of alpha chain and beta2-microglobulin; also called hFcRn

[9] = biological target: T2, soluble human FcRn (heterodimer of FcRn …); experiment: statement in Example 3
[10] = biological target: T2, soluble human FcRn (heterodimer of FcRn …); experiment: SPR (Biacore), hFcRn, measured in multiplicates; n=12
[11] = biological target: T3, soluble human FcRn; experiment: SPR (Biacore), pH 6.0
[12] = biological target: T3, soluble human FcRn; experiment: SPR (Biacore), pH 6.0; Table 26 series (4-5), a different experiment from Table 25; pH 6.0
[13] = biological target: T4, human IgE (human); experiment: SPR Biacore T200, 37 C; pH 5.8, 1.2 mM Ca
T4 construct: Recombinant antigen; variable region derived from an anti-human glypican3 antibody; also called hIgE
Method: (§3) Human IgE was immobilized onto the chip by injecting it at an appropriate concentration so as to be trapped by the biotinylated GPC3 peptide. […] Then, 10 mmol/L glycine-HCl (pH 1.5) was injected to regenerate the sensor chip. The interaction was always measured at 37 degrees C. The measurement result was analyzed by curve fitting using Biacore T200 Evaluation Software (GE Healthcare) to calculate the association rate constant ka (1/Ms) and dissociation rate constant kd (1/s). The dissociation constant KD (M) was calculated from the above-described constants.

[14] = biological target: T4, human IgE; experiment: SPR Biacore T200, 37 C; pH 5.8, 3 microM Ca
Method: as §3

[15] = biological target: T4, human IgE; experiment: SPR Biacore T200, 37 C; ratio of KD, pH dependency
Method: as §3

[16] = biological target: T4, human IgE; experiment: SPR Biacore T200, 37 C; ratio of KD, pH/Ca dependency
Method: as §3

[17] = biological target: T4, human IgE; experiment: SPR Biacore T200, 37 C, hIgE captured via biotinylated GPC3 peptide, Ab analyte; pH 7.4, 1.2 mM Ca
Method: as §3

[18] = biological target: T5, biotinylated GPC3 peptide (chemically-synthetized peptide having a human glypican 3 protein-derived sequence, … (human, C-terminal Lys is biotinylated)); experiment: SPR (Biacore T200), capture of human IgE on Sensor chip SA carrying the biotinylated GPC3 peptide, 37 degrees C
T5 construct: Synthetic peptide immobilized on Sensor chip SA through biotin-streptavidin
T5 peptide: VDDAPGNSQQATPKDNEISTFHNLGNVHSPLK

T1 sequence (VH, as listed by the source): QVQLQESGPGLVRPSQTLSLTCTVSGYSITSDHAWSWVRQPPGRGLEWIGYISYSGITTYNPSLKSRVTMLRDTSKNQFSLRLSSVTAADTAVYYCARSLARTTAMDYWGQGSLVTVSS

Kd [1]: 4000 nM
Kd [2]: 5000 nM
Kd [3]: 6700 nM
Kd [4]: 39 nM
kon [5]: 400000 M⁻¹ s⁻¹
B1: GA2-IgG1 (antibody, V domains shown)
VH: QVQLVQSGAEVKKPGSSVKVSCKASGGTFSSYAISWVRQAPGQGLEWMGGIIPIFGTANYAQKFQGRVTITADESTSTAYMELSSLRSEDTAVYYCARPRWETAISSDAFDIWGQGTMVTVSS
VL: DIQMTQSPSSLSASVGDRVTITCRASQSISDDLNWYQQKPGKAPKLLIYEASNLQSGVPSRFSGSGSGTDFTLTISSLQPEDFATYYCQQHSSSPLTFGQGTKVEIKR

Kd [6]: 240 nM
B2: Fv-4-F652 (antibody, human IgG1, kappa)
heavy: QVQLQESGPGLVKPSETLSLTCAVSGHSISHDHAWSWVRQPPGEGLEWIGFISYSGITNYNPSLQGRVTISRDNSKNTLYLQMNSLRAEDTAVYYCARSLARTTAMDYWGEGTLVTVSSASTKGPSVFPLAPSSKSTSGGTAALGCLVKDYFPEPVTVSWNSGALTSGVHTFPAVLQSSGLYSLSSVVTVPSSSLGTQTYICNVNHKPSNTKVDKKVEPKSCDKTHTCPPCPAPELLGGDSVFLFPPKPKDTLYISRTPEVTCVVVDVSHEDPEVKFNWYVDGVEVHNAKTKPREEQYNSTYRVVSVLTVLHQDWLNGKEYKCKVSNKALPAPIEKTISKAKGQPREPQVYTLPPSRDELTKNQVSLTCLVKGFYPSDIAVEWESNGQPENNYKTTPPVLDSDGSFFLYSKLTVDKSRWQQGNVFSCSVMHEALHYHYTQKSLSLSP
light: DIQMTQSPSSLSASVGDSVTITCQASTDISSHLNWYQQKPGKAPELLIYYGSHLLSGVPSRFSGSGSGTDFTFTISSLEAEDAATYYCGQGNRLPYTFGQGTKVEIERTVAAPSVFIFPPSDEQLKSGTASVVCLLNNFYPREAKVQWKVDNALQSGNSQESVTEQDSKDSTYSLSSTLTLSKADYEKHKVYACEVTHQGLSSPVTKSFNRGEC
notes: VH3-F652 (P238D/M252Y/N434Y) and VL3-CK

binding result [7]: binds
B3: Fv-4-F1080 (antibody, human IgG1, kappa, name in EU numbering)
heavy: B2 heavy with D240P, S426N
light: B2 light
modifications: additional N-glycosylation found by SDS-PAGE (S424N)

Kd [8]: 210 nM
B4: Fv-4-YTE (antibody, human IgG1, kappa)
heavy: B2 heavy with D240P, S256T, T258E, Y436N
light: B2 light

binding result [9]: binds
B5: Fv-4-F946 (antibody, human IgG1, kappa)
heavy: B2 heavy with D240P, T252V, T309Q, Q313A, Y438V
light: B2 light
notes: VH3-F946 and VL3-CK

Kd [10]: 110 nM
B6: Fv-4-F890 (antibody, human IgG1, kappa)
heavy: B2 heavy with D240P, Y438V
light: B2 light
notes: VH3-F890 (M252Y/N434Y/Y436V) and VL3-CK; also called Fv-4-890

Kd [11]: 160 nM
Kd [12]: 71 nM
B7: Fv-4-LS (antibody, human IgG1, kappa)
heavy: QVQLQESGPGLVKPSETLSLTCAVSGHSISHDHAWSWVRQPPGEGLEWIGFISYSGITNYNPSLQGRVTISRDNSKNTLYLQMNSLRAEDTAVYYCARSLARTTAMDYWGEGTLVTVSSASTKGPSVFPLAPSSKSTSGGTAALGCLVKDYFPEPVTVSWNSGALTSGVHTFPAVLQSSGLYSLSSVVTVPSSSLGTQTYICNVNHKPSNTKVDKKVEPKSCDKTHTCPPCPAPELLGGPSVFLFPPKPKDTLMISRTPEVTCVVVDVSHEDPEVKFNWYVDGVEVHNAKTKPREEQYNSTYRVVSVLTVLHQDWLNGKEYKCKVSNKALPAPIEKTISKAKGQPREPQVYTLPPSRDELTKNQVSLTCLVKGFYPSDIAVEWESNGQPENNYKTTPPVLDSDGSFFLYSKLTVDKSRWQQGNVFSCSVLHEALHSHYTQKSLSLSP
light: B2 light
notes: also called F22

Kd [13]: 2000 nM
koff [13]: 0.23 s⁻¹
kon [13]: 120000 M⁻¹ s⁻¹
Kd [14]: 3900 nM
koff [14]: 0.24 s⁻¹
kon [14]: 62000 M⁻¹ s⁻¹
KD (pH 5.8, 1.2 mM Ca)/KD (pH 7.4, 1.2 mM Ca) [15]: 842
KD (pH 5.8, 3 microM Ca)/KD (pH 7.4, 1.2 mM Ca) [16]: 1640
Kd [17]: 2.4 nM
koff [17]: 0.0036 s⁻¹
kon [17]: 1.5e+06 M⁻¹ s⁻¹
B8: clone 278 (antibody, human IgG1, kappa, V domains shown)
VH: QSLEESGGRLVTPGTPLTLTCTASGFSLSSYHMSWVRQAPGKGLEWIGVINSAGNTYYASWAKGRFTVSKTSTTVDLNLTSLTTEDTATYFCARYVFSSGSHDIWGPGTLVTVSS
VL: AYDMTQTPASVEVAVGGTVTIKCQASQSIGSWLAWYQQKPGQPPKELIYGTSTLESGVPSRFIGSGSGTEFTLTISGVECADAATYYCQQGYSEDNIDNAFGGGTEVVVKR
notes: human IgG1 heavy chain constant region and human light chain constant region

binding result [18]: binds
B9: human IgE (recombinant; variable region derived from an anti-human glypican3 antibody) (other)
heavy: QVQLVQSGAEVKKPGASVKVSCKASGYTFTDYEMHWVRQAPGQGLEWMGALDPKTGDTAYSQKFKGRVTLTADKSTSTAYMELSSLTSEDTAVYYCTRFYSYTYWGQGTLVTVSSASTQSPSVFPLTRCCKNIPSNATSVTLGCLATGYFPEPVMVTWDTGSLNGTTMTLPATTLTLSGHYATISLLTVSGAWAKQMFTCRVAHTPSSTDWVDNKTFSVCSRDFTPPTVKILQSSCDGGGHFPPTIQLLCLVSGYTPGTINITWLEDGQVMDVDLSTASTTQEGELASTQSELTLSQKHWLSDRTYTCQVTYQGHTFEDSTKKCADSNPRGVSAYLSRPSPFDLFIRKSPTITCLVVDLAPSKGTVNLTWSRASGKPVNHSTRKEEKQRNGTLTVTSTLPVGTRDWIEGETYQCRVTHPHLPRALMRSTTKTSGPRAAPEVYAFATPEWPGSRDKRTLACLIQNFMPEDISVQWLHNEVQLPDARHSTTQPRKTKGSGFFVFSRLEVTRAEWEQKDEFICRAVHEAASPSQTVQRAVSVNPGK
light: DVVMTQSPLSLPVTPGEPASISCRSSQSLVHSNRNTYLHWYLQKPGQSPQLLIYKVSNRFSGVPDRFSGSGSGTDFTLKISRVEAEDVGVYYCSQNTHVPPTFGQGTKLEIKRTVAAPSVFIFPPSDEQLKSGTASVVCLLNNFYPREAKVQWKVDNALQSGNSQESVTEQDSKDSTYSLSSTLTLSKADYEKHKVYACEVTHQGLSSPVTKSFNRGEC
notes: Used as antigen; also called hIgE
